In article PMC9712121 (Nature, 2022):

Target: the molecule itself
Test: negative-stain EM; TNKS2 SAM at 104 μM on carbon, 2% uranyl acetate; 3D refinement with D1 symmetry, projections compared with the SAM–PARP model and PDB 5JRT

B1: TNKS2 SAM (867–940), wild type (domain or fragment, human, UniProt Q9H2K2 867-940, looked up)
chain: EKKEVPGVDFSITQFVRNLGLEHLMDIFEREQITLDVLVEMGHKELKEIGINAYGHRHKLIKGVERLISGQQGL
notes: Tankyrase 2 (TNKS2), human, SAM domain, residues 867-940; also called SAM domain
- binding result: binds
